Patent US20230149558A1, “DUOCARMYCIN DERIVATIVE AND USE THEREOF” (The University of Tokyo, priority 2020, published 2023)

Tests used:
[1] = test system: CEACAM5-negative DLD1 cells; test: In vitro cytotoxicity test using CEA-V2122 and anticancer agent-labeled modified biotin (Cell Counting Kit-8); assay type: cell-based, human; conditions: complex of CEA-V2122 and Compound 5, molar ratio 1:2; 1.0E-11 to 6.0E-07 final molar concentration; 48 hours; FIG. 8
Experimental: (§1) A cytotoxicity test was carried out using an anticancer agent-labeled modified biotin. The anticancer agent-labeled modified biotin is a compound described as Compound 5. For the assay, first, CEACAM5-positive MKN45 cells and CEACAM5-negative DLD1 cells were seeded on a 96-well plate for cell culture, so that the cell count became 5×10^3 cells/well and the amount of the culture solution became 50 μL/well, and thereafter, the cells were cultured overnight. A solution containing a complex of CEA-V2122 and a […] modified biotin was prepared by mixing CEA-V2122 and Compound 5 to a molar ratio of 1:2, and then incubating the mixture at room temperature for 10 minutes. […]
(§2) To the cells that had been cultured overnight, the complex serial dilution solutions were added in an amount of 50 μL/well to each well of the plate to the final molar concentration (1.0E-11, 3.0E-11, 9.1E-11, 2.7E-10, 8.2E-10, 2.5E-09, 7.4E-09, 2.2E-08, 6.7E-08, 2.0E-07, and 6.0E-07). […] The dosage and administration were determined by the instruction manuals included with the kit, and after the addition of the reagent, the mixture was incubated for 1.5 hours at 37° C. in a CO2 incubator. Thereafter, the absorbance at 450 nm was measured, and a mean value was then calculated, followed by background collection. […]

[2] = test system: CEACAM5-positive MKN45 cells; test: as above; assay type: cell-based, human; conditions: complex of CEA-V2122 and Compound 5, molar ratio 1:2; 1.0E-11 to 6.0E-07 final molar concentration; 48 hours; FIG. 8
Experimental: as §1, §2

[3] = test system: HeLa S3 cells; test: Cytotoxicity of Duocarmycin SA and Duocarmycin SA-Valine (Cell Counting Kit-8); assay type: cell-based; conditions: 1.0E-11 to 6.0E-07, 48 hours, FIG. 11
Experimental: In order to confirm the activities of Compound X (Duocarmycin SA) and Compound Y (Duocarmycin SA-Valin) shown in FIG. 9 and FIG. 10, cytotoxicity was confirmed using HeLa S3 cells.
The cells were seeded on a 96-well plate for cell culture, so that the cell count became 5×10^3 cells/well and the amount of the culture solution became 50 μL/well, and thereafter, the cells were cultured overnight. The concentration of Compound X or Compound Y was adjusted with a culture solution, so that the final concentration thereof became 600 nM. […]
The medium used in the overnight culture of the cells was exchanged with the prepared agent-diluted solution, and the cells were then cultured for 48 hours. […] The dosage and administration applied in the assay were determined in accordance with the instruction manuals included with the kit, and after addition of the reagent, the mixture was incubated for 1.5 hours at 37° C., in a CO2 incubator. Thereafter, the absorbance at 450 nm was measured, and a mean value was then calculated, followed by background collection. The control was set to be 100%, and the ratio of the cell growth under each condition to the control was calculated. […]

[4] = biological target: T1, Recombinant Human CEACAM-5/CD66e Protein, CF (R & D SYSTEMS) (human, UniProt P06731 35-685); test: SPR, Biacore T200; CEACAM5 immobilized on CM5 chip, CEA-V2122 as analyte; single-cycle kinetics, bivalent analysis fit, KD=kd1/ka1
T1 construct: Bought recombinant protein, immobilized on a CM5 chip by amine coupling (279 RU); also called antigen CEACAM5
T1 sequence (looked up): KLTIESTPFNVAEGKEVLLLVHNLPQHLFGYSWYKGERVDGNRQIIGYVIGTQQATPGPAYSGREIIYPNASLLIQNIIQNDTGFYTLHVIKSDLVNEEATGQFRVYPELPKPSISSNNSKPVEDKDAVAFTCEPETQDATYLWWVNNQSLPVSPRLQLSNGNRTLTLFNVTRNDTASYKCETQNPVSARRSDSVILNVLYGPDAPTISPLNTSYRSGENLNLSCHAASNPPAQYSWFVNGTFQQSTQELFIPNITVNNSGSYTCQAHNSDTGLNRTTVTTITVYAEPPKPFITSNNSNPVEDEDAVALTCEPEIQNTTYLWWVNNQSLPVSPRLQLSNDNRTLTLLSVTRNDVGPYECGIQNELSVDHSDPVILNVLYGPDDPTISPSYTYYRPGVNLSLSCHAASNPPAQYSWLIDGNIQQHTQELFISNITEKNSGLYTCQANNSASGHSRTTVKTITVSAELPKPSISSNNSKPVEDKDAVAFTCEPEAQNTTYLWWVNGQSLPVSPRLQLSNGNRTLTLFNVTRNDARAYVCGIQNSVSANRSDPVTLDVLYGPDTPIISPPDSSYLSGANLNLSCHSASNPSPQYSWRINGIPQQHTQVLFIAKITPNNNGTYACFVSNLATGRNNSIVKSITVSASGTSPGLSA
Experimental: (§3) The affinity of CEA-V2122 for the antigen CEACAM5 was evaluated using a surface plasmon resonance (SPR) measuring device, Biacore T200 (GE Healthcare Life Sciences). Specifically, Recombinant Human CEACAM-5/CD66e Protein, CF (R & D SYSTEMS) was immobilized on Sensor Chip CM5 (GE Healthcare Life Sciences) using an amine-coupling kit (GE Healthcare Lite Sciences). The final amount of the ligand immobilized was 279 RU. Moreover, about the purified CEA-V2122, two-fold serial dilutions from 1E-08 to 6.25E-10 M were prepared as analytes. Regarding interaction analysis, data were obtained by single-cycle kinetics analysis.

[5] = biological target: T2, Recombinant Human CEACAM-5/CD66e Protein (Homo sapiens, UniProt P06731); test: SPR (Biacore T200) affinity of CEA-V2122 for the antigen CEACAM5; assay type: binding
T2 construct: purchased R & D SYSTEMS
T2 sequence (P06731 35-676): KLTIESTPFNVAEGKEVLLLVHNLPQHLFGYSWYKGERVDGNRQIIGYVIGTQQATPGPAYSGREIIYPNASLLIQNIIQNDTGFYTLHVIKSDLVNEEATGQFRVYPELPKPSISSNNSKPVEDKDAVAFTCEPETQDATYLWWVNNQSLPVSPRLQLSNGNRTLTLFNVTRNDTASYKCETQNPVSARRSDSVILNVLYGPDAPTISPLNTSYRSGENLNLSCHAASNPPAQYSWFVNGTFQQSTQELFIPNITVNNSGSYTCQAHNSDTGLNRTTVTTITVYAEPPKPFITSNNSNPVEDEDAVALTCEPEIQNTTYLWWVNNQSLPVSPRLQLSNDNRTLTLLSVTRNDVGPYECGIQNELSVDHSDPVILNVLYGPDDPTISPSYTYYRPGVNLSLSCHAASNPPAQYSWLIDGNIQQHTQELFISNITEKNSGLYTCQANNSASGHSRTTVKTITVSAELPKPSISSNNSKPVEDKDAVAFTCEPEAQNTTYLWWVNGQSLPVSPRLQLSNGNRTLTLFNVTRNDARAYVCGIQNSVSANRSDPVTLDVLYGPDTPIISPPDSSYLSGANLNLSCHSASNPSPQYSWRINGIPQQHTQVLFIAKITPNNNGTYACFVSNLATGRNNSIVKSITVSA
Experimental: as §3, with “analysis. Using Biacore T200 Evaluation Software, version 2.0, the obtained data were subjected to curve fitting in a bivalent analysis mode, and the following values were obtained: ka1−3.208E+5, and kd1=3.461E-7.” for “analysis.”

[6] = biological target: T3, CEACAM5 (Homo sapiens, UniProt P06731); test: Cell staining of CEACAM5-expressing cell line using FITC-labeled CEA-V2122; assay type: cell-based
T3 construct: endogenous in cells; host or cells: MKN-45 (CEACAM5-positive); DLD1 (CEACAM5-negative control)
T3 sequence (P06731 35-685 limits assumed): T1 sequence (looked up)
Experimental: In order to stain a CEACAM5 expression-positive cancer cell line, FITC labeling was carried out on the cell line, using 100 μg of a purified CEA-V2122 protein. Specifically, labeling was carried out using Fluorescein Labeling Kit—NH2 (DOJINDO LABORATORIES) in accordance with the dosage and administration described in the operating manual included with the kit, and the obtained product was defined to be CEA-V2122-FITC. Specific staining of the CEACAM5 expression-positive cancer cell line is as follows. That is, CEACAM5-positive human stomach cancer-derived MKN-45 cells and CEACAM5-negative human colon cancer-derived DLD1 cells were each seeded on a CELLSTAR, μClear, 96-well plate (Greiner) to a cell density of 2.0×10^4 cells/well, and thereafter, the cells were cultured overnight. Subsequently, a culture solution containing 20 nM CEA-V2122-FITC and 1 μM Hoechist was added to the 96-well plate to a concentration of 100 μL/well, and the obtained mixture was then reacted at 4° C. for 30 minutes. Thereafter, each image was taken using In Cell Analyzer 6000 (GE Healthcare Life Sciences).

[7] = CEACAM5 immobilized on Sensor Chip CM5 (279 RU), single-cycle kinetics, bivalent analysis mode

COC(=O)c1cc2c([nH]1)C(=O)C=C1N(C(=O)c3cc4cc(OC)c(OCCNC(=O)[C@@H](NC(=O)[C@H](C)NC(=O)OCCOCCOCCn5cc(CCC(=O)NCCOCCOCCN(CC(=O)NCCCCNC(=O)CCCC[C@@H]6SC[C@@H]7NC(=N)N[C@@H]76)CC(=O)NCCCCNC(=O)CCCC[C@@H]6SC[C@@H]7NC(=N)N[C@@H]76)nn5)C(C)C)c(OC)c4[nH]3)C[C@H]3CC123 (stereo partly drawn) [Compound 5]
cell growth ratio to control [1]: such a concentration-dependent effect of suppressing the cell growth of the CEACAM5-negative DLD1 cells was not confirmed
cell growth ratio to control [2]: suppression of the cell growth of the CEACAM5-positive MKN45 cells was confirmed in a complex concentration-dependent manner

Duocarmycin SA-Valine
effect of suppressing cell growth (ratio of cell growth to control) [3]: higher effect of suppressing cell growth than Duocarmycin SA

B1: CEA-V2122 (scFv)
chain: QVKLEQSGAEVVKPGASVKLSCKASGFNIKDSYMHWLRQGPGQRLEWIGWIDPENGDTEYAPKFQGKATFTTDTSANTAYLGLSSLRPEDTAVYYCNEGTPTGPYYFDYWGQGTLVTVSSGGGGSGGGGSGGGGSENVLTQSPSSMSVSVGDRVNIACSASSSVPYMHWLQQKPGKSPKLLIYLTSNLASGVPSRFSGSGSGTDYSLTISSVQPEDAATYYCQQRSSYPLTFGGGTKLEIKGGGGSGGGGAEAGITGTWSDQLGDTFIVTAGADGALTGTYENAVGGAESRYVLTGRYDSAPATDGSGTALGWTVAWKNNSKNAHSATTWSGQYVGGADAKINTQWLLTSGTTNANAWKSTLVGHDTFTKVKPSAASHHHHHH
notes: Fusion of an anti-CEACAM5 scFv with the mutant streptavidin V2122; also called scFv-V2122; CEA-V2122 fusion protein
Kd [4]: 1.08 pM

B2: CEA-V2122: scFv-type anti-CEACAM5 antibody bound with mutant streptavidin V2122 via an amino acid linker (GGGGSGGGG), SEQ ID NO: 3 (protein)
chain: B1 chain
ka1 [5, 7]: 3.208E+5
kd1 [5, 7]: 3.461E-7
KD=kd1/ka1 ([5]; bivalent analysis, KD=kd1/ka1): 1.078E−12

B3: CEA-V2122-FITC: purified CEA-V2122 protein labeled using Fluorescein Labeling Kit—NH2 (protein)
chain: B1 chain
stained cell images (recognition of CEACAM5) ([6]; 20 nM CEA-V2122-FITC, 4° C. for 30 minutes, CEACAM5-positive MKN-45 vs CEACAM5-negative DLD1 cells, FIG. 5): specifically recognizes CEACAM5 on the surface of the cell membrane
time-series stained MKN45 cell images (localisation after binding) ([6]; MKN45 cells, time-series data, FIG. 6): the CEACAM5 stays on the surface of the cell membrane
